Data published in the supplement of paper PMC10567573.

B1: NEK8 (parent)
chain: VVGTPCYISPELCEGKPYNQKSDI

Variants of: B1
Assay: protein stability index of a GFP-peptide fusion (GPS, HEK-293T) (PSI 1-6); higher = more stable
Details: c terminus: a fixed tail appended
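Note: lentivirally expressed fusions sorted by FACS into six bins by GFP to DsRed ratio, PSI derived from sequencing read proportions per bin multiplied by bin number.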

Variant | protein stability index
VVGTPCYISPELCEGKIYNQKSDI | 2.39
VVGTPCYISPELCEGKTYNQKSDI | 3
VVGTPCYISPELCEGKQYNQKSDI | 2.77
VVGTPCYISPELCEGKHYNQKSDI | 2.9
VVGTPCYISPELCEGKAYNQKSDI | 2.91
VVGTPCYTSPELCEGKPYNQKSDI | 3.77
VVGTPCYCSPELCEGKPYNQKSDI | 3.05
VVGTPCYGSPELCEGKPYNQKSDI | 4.42
EVGTPCYISPELCEGKPYNQKSDI | 4.48
RVGTPCYISPELCEGKPYNQKSDI | 3.74
MVGTPCYISPELCEGKPYNQKSDI | 3.42
VVGTPCYISPELCEGKPYQQKSDI | 3.19
VVGTPCYISPELCEGKPYHQKSDI | 2.48
VVGTPCYISPELCEGKPYDQKSDI | 3.22
VVGTPCYISPELCEGKPYPQKSDI | 2.82
VVGTPCYISPALCEGKPYNQKSDI | 2.68
VVGTPCYISPLLCEGKPYNQKSDI | 1.8
VVGTPCYISPDLCEGKPYNQKSDI | 3.16
VVGTPCYISPNLCEGKPYNQKSDI | 2.66
VVRTPCYISPELCEGKPYNQKSDI | 2.74
VVATPCYISPELCEGKPYNQKSDI | 2.31
VVGTPCYISPELCEGKPYNQRSDI | 2.26
VVGTPCYISPELCEGKPYNQMSDI | 2.07
VVGTPCYISPELCEGKPYNQNSDI | 2.85

Variant | protein stability index
VVGTPCYISPELCEGKPYNQWSDI | 2.65
VVGTPCYISPELCEGHPYNQKSDI | 2.15
VVGTPCYISPELCEGQPYNQKSDI | 2.79
VVGTPCYISPELCEGGPYNQKSDI | 2.55
VVGTPCYISPELCEGFPYNQKSDI | 2.11
VVGTPCYISPELCEGRPYNQKSDI | 2.62
VVGTPCYISPELCEGPPYNQKSDI | 2.15
VTGTPCYISPELCEGKPYNQKSDI | 3.73
VSGTPCYISPELCEGKPYNQKSDI | 3.75
VPGTPCYISPELCEGKPYNQKSDI | 3.44
VVGTPCYISPELCEGKPYNQKSDN | 3.35
VVGTPCYISPELCEGKPYNQKSDL | 2.79
VVGTPCYISPELCEGKPYNQKSDW | 2.63
VVGTPCYISPELCEGKPYNQKSDY | 3.08
VVGTPCYISPELCEGKPYNQKSDR | 3.51
VVGTPCYISPELCEGKPYNQKHDI | 2.77
VVGTPCYISPELCEGKPYNQKEDI | 3.31
VVGTPCYISPELCEGKPYNQKFDI | 2.5
VVGTPCYISPELCEGKPRNQKSDI | 3.58
VVGTPCYISPELCEGKPGNQKSDI | 3.45
VVGTPCYISPELCEGKPHNQKSDI | 2.7
VVGTPCYISPELCEGKPMNQKSDI | 3.15
VVGTPCYISPELCEGKPYNQKSLI | 2.15
VVGTPCYISPELCEGKPYNQKSEI | 2.47

Variant | protein stability index
VVGTPCYISPELCEGKPYNQKSVI | 2.02
VVGTPCYISPELCAGKPYNQKSDI | 2.49
VVGTPCYISPELCFGKPYNQKSDI | 1.82
VVGTPCYISPELCKGKPYNQKSDI | 2.6
VVGTPCYISPELCGGKPYNQKSDI | 2.52
VVGTPCYISPELCPGKPYNQKSDI | 2.79
VVGTPCYISPELCWGKPYNQKSDI | 2.5
VVGTPCYISPELCSGKPYNQKSDI | 2.38
VVGTPCYIVPELCEGKPYNQKSDI | 2.31
VVGTPCYINPELCEGKPYNQKSDI | 2.31
VVGTPCYIRPELCEGKPYNQKSDI | 2.48
VVGTPCYIPPELCEGKPYNQKSDI | 3.58
VVGTPCYIAPELCEGKPYNQKSDI | 2.45
VVGTACYISPELCEGKPYNQKSDI | 3.05
VVGTICYISPELCEGKPYNQKSDI | 1.64
VVGTFCYISPELCEGKPYNQKSDI | 1.16
VVGTMCYISPELCEGKPYNQKSDI | 2.75
VVGDPCYISPELCEGKPYNQKSDI | 3.72
VVGTPCYISKELCEGKPYNQKSDI | 3.56
VVGTPCYISHELCEGKPYNQKSDI | 3.66
VVGTPCYISAELCEGKPYNQKSDI | 2.96
VVGTPCYISPELCENKPYNQKSDI | 2.68
VVGTPCYISPELCEVKPYNQKSDI | 3.14
VVGTPCYISPELCEQKPYNQKSDI | 2.97

Variant | protein stability index
VVGTPCYISPELCEYKPYNQKSDI | 2.34
VVGTPCYISPELCEAKPYNQKSDI | 2.85
VVGTPCYISPERCEGKPYNQKSDI | 3.35
VVGTPCYISPEGCEGKPYNQKSDI | 4.29
VVGTPCYISPETCEGKPYNQKSDI | 3.15
VVGTPCYISPEHCEGKPYNQKSDI | 3.59
VVGTPCYISPELCEGKPYNVKSDI | 2.79
VVGTPCYISPELCEGKPYNCKSDI | 2.57
VVGTPCYISPELCEGKPYNEKSDI | 2.63
VVGTPCYISPELCEGKPYNFKSDI | 1.85
VVGTPDYISPELCEGKPYNQKSDI | 4.4
VVGTPKYISPELCEGKPYNQKSDI | 3.48
VVGTPPYISPELCEGKPYNQKSDI | 3.38
VVGTPNYISPELCEGKPYNQKSDI | 2.38
VVGTPCYISPELPEGKPYNQKSDI | 2.3
VVGTPCYISPELQEGKPYNQKSDI | 2.79
VVGTPCYISPELIEGKPYNQKSDI | 2.48
VVGTPCYISPELHEGKPYNQKSDI | 2.92
VVGTPCTISPELCEGKPYNQKSDI | 4.36
VVGTPCMISPELCEGKPYNQKSDI | 3.97
VVGTPCNISPELCEGKPYNQKSDI | 4.52
VVGTPCLISPELCEGKPYNQKSDI | 3.83
